Here are results for 4 substances from PMC3089455.

The target in assay [1] is Aeromonas hydrophila AhQnr (Aeromonas hydrophila ATCC 7966). The assay can be described thus: AUC.
Assay [2] deals with AhQnr Δdouble deletion mutant (both loops removed) with C-terminal hexahistidine tag (Aeromonas hydrophila ATCC 7966). Briefly: SEC.
In assay [3] the target is AhQnr Δloop1 deletion mutant with C-terminal hexahistidine tag (Aeromonas hydrophila ATCC 7966). Briefly: SEC. Background: Size exclusion chromatography separates by hydrodynamic size, large species first.
Assay [4] addresses AhQnr Δloop2 deletion mutant with C-terminal hexahistidine tag (Aeromonas hydrophila ATCC 7966). The assay can be described thus: SEC.

Usually stoichiometry N stands for a count of units in the complex or per binding partner. Regarding “Aeromonas hydrophila AhQnr (natural protein)”, in assay [1], the stoichiometry N came out at 2.

Take “AhQnr Δdouble deletion mutant (both loops removed) with C-terminal hexahistidine tag (natural protein)”: the stoichiometry N in assay [2] came out at 2.

In assay [3], “AhQnr Δloop1 deletion mutant with C-terminal hexahistidine tag (natural protein)” showed a stoichiometry N of 2.

Consider “AhQnr Δloop2 deletion mutant with C-terminal hexahistidine tag (natural protein)”, for which the stoichiometry N in assay [4] amounted to 2.
